# Literature values, collected in article PMC5998221.
# Key:
# Asp101 = Asp101 (UniProt position 119, KKIVSDGNGMN)
# Asp119 = Asp119 (UniProt position 137, RCKGTDVQAWI)
# Asp18 = Asp18 (UniProt position 36, KRHGLDNYRGY)
# Asp48 = Asp48 (UniProt position 66, TNRNTDGSTDY)
# Asp52 = Asp52 (UniProt position 70, TDGSTDYGILQ)
# Asp66 = Asp66 (UniProt position 84, RWWCNDGRTPG)
# Asp87 = Asp87 (UniProt position 105, ALLSSDITASV)
# Glu35 = Glu35 (UniProt position 53, CAAKFESNFNT)
# Glu7 = Glu7 (UniProt position 25, VFGRCELAAAM)
substance,measurement,setting,value
"Hen egg white lysozyme (HEWL, lysozyme C) (Gallus gallus)",pKa,Asp101,4.5
same,pKa,Asp119,3.5
same,pKa,Asp18,2.8
same,pKa,Asp48,1.4
same,pKa,Asp52,3.6
same,pKa,Asp66,1.2
same,pKa,Asp87,2.2
same,pKa,Glu35,6.1
same,pKa,Glu7,2.6
